Assay [1] deals with T1, Human TNFR2 (soluble) recombinant protein (human, UniProt P20333 33-205, fluorescent label from the Monolith Protein Labeling Kit RED-NHS 2nd Generation (labelled target in MST)).
T1 construct: human TNF receptor 2, soluble recombinant form; also called TNF receptor 2; p80; source: bought: PeproTech
T1 sequence: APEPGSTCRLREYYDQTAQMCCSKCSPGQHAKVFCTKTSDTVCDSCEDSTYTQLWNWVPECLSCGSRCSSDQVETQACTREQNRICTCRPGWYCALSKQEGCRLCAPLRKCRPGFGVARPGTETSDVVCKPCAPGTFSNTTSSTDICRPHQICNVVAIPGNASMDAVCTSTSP
The assay is described as follows: MST; labelled TNFR1 or TNFR2 (RED-NHS 2nd Generation) at 20 nM, peptide titrated in 16 serial dilutions, PBS, 20 min incubation in the dark, Monolith NT.115 Pico, medium MST power. Conditions: both partners purified.

For assay [2], the target named is T2, Human TNFR1 (soluble) recombinant protein (human, UniProt P19438 42-181, fluorescent label from the Monolith Protein Labeling Kit RED-NHS 2nd Generation (labelled target in MST)).
T2 construct: human TNF receptor 1, soluble recombinant form; also called TNF receptor 1; sTNFR1; source: bought: PeproTech
T2 sequence: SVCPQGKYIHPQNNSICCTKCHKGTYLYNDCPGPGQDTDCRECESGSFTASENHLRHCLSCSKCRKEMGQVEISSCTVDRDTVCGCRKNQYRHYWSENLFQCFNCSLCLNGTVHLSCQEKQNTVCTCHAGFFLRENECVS
Described as above. Conditions: both partners purified.

Where no end group is shown, it is not given here.

Usually Kd stands for the constant that tells how readily two partners part at equilibrium.

B1: OB6 peptide (peptide)
peptide: NPQAEGQLQWLNRRA
notes: 15-residue stretch of human TNF predicted with Rosetta Peptiderive from the TNF-TNFR2 complex; Synthesised on Rink amide resin, so probably with a C-terminal amide (stated only for OB5); source: synthetic peptide (SPPS, Rink amide resin, HPLC purified)
As to B1, in assay [1], the Kd stood at 3.9 µM.

B2: OB5 peptide (peptide)
peptide: NHQVEEQLEWLSQRA-NH2
notes: 15-residue stretch of mouse TNF-α predicted with Rosetta Peptiderive from the mouse TNF-α-human TNFR1 complex; source: synthetic peptide (SPPS, Rink amide resin, HPLC purified)
Regarding B2, the Kd in assay [2] was 0.204 µM.

B3: OB7 peptide (peptide)
peptide: VLLTHTISRIAVSYQTKVNLL
notes: Synthesised on Rink amide resin, so probably with a C-terminal amide (stated only for OB5); 21 residues as printed; source: synthetic peptide (SPPS, Rink amide resin, HPLC purified)
In the case of B3, the Kd in assay [2] came to 8.6 µM.

The record behind these values is article PMC12024540, “Peptide-Based Regulation of TNF-α-Mediated Cytotoxicity” (Biomolecules, 2025).
